US20120172295A1 (INDIANA UNIVERSITY RESEARCH AND TECHNOLOGY, published 2012)
“And” between values parts separate entries of the source, which are not always exact repeats. Equal entries are not always repeated. Where two headings read alike, the source gives them in different places. Starred links: 1 amine or outer side, 2 acyl side, 3 side chain; linkers in the order of their positions; H or OH if unused. Positions of bridges follow the written chain, without caps; N, C: chain ends. Non-standard residues stand in square brackets, D forms with d. Groups on a side chain read outwards from the residue. No end group written: not given here. *: point of attachment. γGlu = O=C(O)[C@H](CCC(=O)[*:2])N[*:1]; Palmitoyl = CCCCCCCCCCCCCCCC(=O)*; Myristoyl = CCCCCCCCCCCCCC(=O)*; DMIA = not defined here; Aib = CC(C)(N)C(=O)O; Ahx = NCCCCCC(=O)O; βAla = NCCC(=O)O

Tests used:
Experiment in all cases: cell-based or functional assay
[1] = biological target: T1, GLP-1 receptor (UniProt P43220 24-463, limits assumed)
[2] = biological target: T2, glucagon receptor (UniProt P47871 26-477, limits assumed)
T2 sequence (P47871 26-477 limits assumed): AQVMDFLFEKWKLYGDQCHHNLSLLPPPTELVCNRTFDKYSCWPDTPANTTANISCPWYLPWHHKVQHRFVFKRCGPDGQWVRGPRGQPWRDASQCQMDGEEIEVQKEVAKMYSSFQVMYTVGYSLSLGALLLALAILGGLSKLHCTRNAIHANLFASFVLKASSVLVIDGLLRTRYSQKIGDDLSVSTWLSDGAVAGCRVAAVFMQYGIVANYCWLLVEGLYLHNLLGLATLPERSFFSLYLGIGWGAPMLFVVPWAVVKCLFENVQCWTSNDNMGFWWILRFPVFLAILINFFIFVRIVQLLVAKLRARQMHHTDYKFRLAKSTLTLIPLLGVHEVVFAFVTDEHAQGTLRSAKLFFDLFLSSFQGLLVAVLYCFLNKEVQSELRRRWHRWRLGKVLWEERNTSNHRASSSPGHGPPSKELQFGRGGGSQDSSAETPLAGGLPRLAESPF

[3] = biological target: T1, GLP-1 receptor; remark: listed apart in the source
[4] = biological target: T1, GLP-1 receptor; remark: listed apart in the source
[5] = biological target: T2, glucagon receptor; remark: listed apart in the source
[6] = biological target: T1, GLP-1 receptor; remark: listed apart in the source
[7] = biological target: T3, GIP receptor (UniProt P48546 22-466)
T3 sequence (looked up): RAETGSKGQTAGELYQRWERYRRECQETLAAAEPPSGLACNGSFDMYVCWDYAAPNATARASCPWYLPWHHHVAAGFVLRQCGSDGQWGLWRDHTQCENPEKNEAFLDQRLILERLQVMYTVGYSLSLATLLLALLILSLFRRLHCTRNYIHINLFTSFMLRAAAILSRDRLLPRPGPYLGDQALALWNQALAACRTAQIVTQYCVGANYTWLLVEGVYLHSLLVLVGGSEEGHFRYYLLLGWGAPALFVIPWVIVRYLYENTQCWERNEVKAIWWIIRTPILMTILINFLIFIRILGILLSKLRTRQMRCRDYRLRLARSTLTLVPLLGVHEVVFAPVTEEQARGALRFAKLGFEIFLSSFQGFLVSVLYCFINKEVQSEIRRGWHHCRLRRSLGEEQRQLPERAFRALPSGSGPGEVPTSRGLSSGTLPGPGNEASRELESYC

[8] = biological target: T2, glucagon receptor; remark: listed apart in the source

HSQGTFTSDYSKYLDSRRAQDFVQWLMNGGPSSGAPPPS-NH2 [MNGG30 PSSGAPPPS (SEQ ID NO: 522)]
EC50 [1]: 0.31 nM | Relative Potency (%) [1]: 8%

HSQGTFTSDYSKYLDERRAKDFVQWLMDGGPSSGAPPPS-NH2 [E16K20-MDGG30 PSSGAPPPS (SEQ ID NO: 526)]
EC50 [1]: 0.02 nM

HAEGTFTSDVSSYLEGQAAKEFIAWLVKGG-NH2 [GLP-1-VKGG30 (SEQ ID NO: 527)]
EC50 [1]: 0.025 nM | Relative Potency (%) [1]: 100%

B1: Peptide 26 (SEQ ID NO: 637) (peptide)
peptide: H[Aib]QGTFTSDYSKYLD[Aib]RRAQDFVQWLMNT-NH2
modifications: N-terminus assumed
SMILES: CSCC[C@H](NC(=O)[C@H](CC(C)C)NC(=O)[C@H](Cc1c[nH]c2ccccc12)NC(=O)[C@H](CCC(N)=O)NC(=O)[C@@H](NC(=O)[C@H](Cc1ccccc1)NC(=O)[C@H](CC(=O)O)NC(=O)[C@H](CCC(N)=O)NC(=O)[C@H](C)NC(=O)[C@H](CCCNC(=N)N)NC(=O)[C@H](CCCNC(=N)N)NC(=O)C(C)(C)NC(=O)[C@H](CC(=O)O)NC(=O)[C@H](CC(C)C)NC(=O)[C@H](Cc1ccc(O)cc1)NC(=O)[C@H](CCCCN)NC(=O)[C@H](CO)NC(=O)[C@H](Cc1ccc(O)cc1)NC(=O)[C@H](CC(=O)O)NC(=O)[C@H](CO)NC(=O)[C@@H](NC(=O)[C@H](Cc1ccccc1)NC(=O)[C@@H](NC(=O)CNC(=O)[C@H](CCC(N)=O)NC(=O)C(C)(C)NC(=O)[C@@H](N)Cc1c[nH]cn1)[C@@H](C)O)[C@@H](C)O)C(C)C)C(=O)N[C@@H](CC(N)=O)C(=O)N[C@H](C(N)=O)[C@@H](C)O
EC50 [2]: 0.653 nM | EC50 [3]: 0.475 nM

H[Aib]QGTFTSDK([Ala-Ala-Palmitoyl])SKYLD[Aib]RRAQDFVQWLMNT-NH2 [Peptide 82 (SEQ ID NO: 564)]
EC50 [2]: 0.024 nM | EC50 [3]: 0.108 nM

B2: Peptide 83 (SEQ ID NO: 565) (peptide)
peptide: H[Aib]QGTFTSDK([γGlu-γGlu-Palmitoyl])SKYLD[Aib]RRAQDFVQWLMNT-NH2
modifications: N-terminus assumed
SMILES: CCCCCCCCCCCCCCCC(=O)N[C@@H](CCC(=O)N[C@@H](CCC(=O)NCCCC[C@H](NC(=O)[C@H](CC(=O)O)NC(=O)[C@H](CO)NC(=O)[C@@H](NC(=O)[C@H](Cc1ccccc1)NC(=O)[C@@H](NC(=O)CNC(=O)[C@H](CCC(N)=O)NC(=O)C(C)(C)NC(=O)[C@@H](N)Cc1c[nH]cn1)[C@@H](C)O)[C@@H](C)O)C(=O)N[C@@H](CO)C(=O)N[C@@H](CCCCN)C(=O)N[C@@H](Cc1ccc(O)cc1)C(=O)N[C@@H](CC(C)C)C(=O)N[C@@H](CC(=O)O)C(=O)NC(C)(C)C(=O)N[C@@H](CCCNC(=N)N)C(=O)N[C@@H](CCCNC(=N)N)C(=O)N[C@@H](C)C(=O)N[C@@H](CCC(N)=O)C(=O)N[C@@H](CC(=O)O)C(=O)N[C@@H](Cc1ccccc1)C(=O)N[C@H](C(=O)N[C@@H](CCC(N)=O)C(=O)N[C@@H](Cc1c[nH]c2ccccc12)C(=O)N[C@@H](CC(C)C)C(=O)N[C@@H](CCSC)C(=O)N[C@@H](CC(N)=O)C(=O)N[C@H](C(N)=O)[C@@H](C)O)C(C)C)C(=O)O)C(=O)O
EC50 [3]: 0.043 nM

H[Aib]QGTFTSDK([βAla-βAla-Palmitoyl])SKYLD[Aib]RRAQDFVQWLMNT-NH2 [Peptide 84 (SEQ ID NO: 566)]
EC50 [3]: 0.004 nM

H[Aib]QGTFTSDK([Ahx-Palmitoyl])SKYLD[Aib]RRAQDFVQWLMNT-NH2 [Peptide 85 (SEQ ID NO: 567)]
EC50 [2]: 0.01 nM | EC50 [3]: 0.005 nM

H[Aib]QGTFTSDK([Leu-Leu-Palmitoyl])SKYLD[Aib]RRAQDFVQWLMNT-NH2 [Peptide 86 (SEQ ID NO: 568)]
EC50 [3]: 0.006 nM

H[Aib]QGTFTSDK([Pro-Pro-Palmitoyl])SKYLD[Aib]RRAQDFVQWLMNT-NH2 [Peptide 87 (SEQ ID NO: 569)]
EC50 [2]: 0.017 nM | EC50 [3]: 0.009 nM

H[Aib]QGTFTSDK(Myristoyl)SKYLD[Aib]RRAQDFVC(PEG 40 kDa)WLMNT-NH2 [Peptide 77* (SEQ ID NO: 570)]
EC50 [2]: 21.9 nM | EC50 [3]: 1.46 nM

H[Aib]QGTFTSDK([γGlu-γGlu-Myristoyl])SKYLD[Aib]RRAQDFVC(PEG 40 kDa)WLMNT-NH2 [Peptide 78* (SEQ ID NO: 571)]
EC50 [2]: 0.319 nM | EC50 [3]: 0.103 nM

H[Aib]QGTFTSDK([Ala-Ala-Myristoyl])SKYLD[Aib]RRAQDFVC(PEG 40 kDa)WLMNT-NH2 [Peptide 81* (SEQ ID NO: 573)]
EC50 [2]: 0.597 nM | EC50 [3]: 0.271 nM

H[Aib]QGTFTSDK([Ala-Ala-Palmitoyl])SKYLD[Aib]RRAQDFVC(PEG 40 kDa)WLMNT-NH2 [Peptide 79* (SEQ ID NO: 575)]
EC50 [2]: 0.102 nM

H[Aib]QGTFTSDK([γGlu-γGlu-Palmitoyl])SKYLD[Aib]RRAQDFVC(PEG 40 kDa)WLMNT-NH2 [Peptide 80* (SEQ ID NO: 576)]
EC50 [2]: 0.108 nM

B3: Chi-2, AIB2, Lys10 γE-γE-C16 (SEQ ID NO: 646) (peptide)
peptide: H[Aib]QGTFTSDK([γGlu-γGlu-Palmitoyl])SKYLDEQAAKEFIAWLMNT-NH2
modifications: N-terminus assumed
SMILES: CCCCCCCCCCCCCCCC(=O)N[C@@H](CCC(=O)N[C@@H](CCC(=O)NCCCC[C@H](NC(=O)[C@H](CC(=O)O)NC(=O)[C@H](CO)NC(=O)[C@@H](NC(=O)[C@H](Cc1ccccc1)NC(=O)[C@@H](NC(=O)CNC(=O)[C@H](CCC(N)=O)NC(=O)C(C)(C)NC(=O)[C@@H](N)Cc1c[nH]cn1)[C@@H](C)O)[C@@H](C)O)C(=O)N[C@@H](CO)C(=O)N[C@@H](CCCCN)C(=O)N[C@@H](Cc1ccc(O)cc1)C(=O)N[C@@H](CC(C)C)C(=O)N[C@@H](CC(=O)O)C(=O)N[C@@H](CCC(=O)O)C(=O)N[C@@H](CCC(N)=O)C(=O)N[C@@H](C)C(=O)N[C@@H](C)C(=O)N[C@@H](CCCCN)C(=O)N[C@@H](CCC(=O)O)C(=O)N[C@@H](Cc1ccccc1)C(=O)N[C@H](C(=O)N[C@@H](C)C(=O)N[C@@H](Cc1c[nH]c2ccccc12)C(=O)N[C@@H](CC(C)C)C(=O)N[C@@H](CCSC)C(=O)N[C@@H](CC(N)=O)C(=O)N[C@H](C(N)=O)[C@@H](C)O)[C@@H](C)CC)C(=O)O)C(=O)O
EC50 [4]: 0.0018 nM

B4: Chi-2, AIB2, I7, Lys10 γE-C16 (SEQ ID NO: 649) (peptide)
peptide: H[Aib]QGTFISDK([γGlu-Palmitoyl])SKYLDEQAAKEFIAWLMNT-NH2
modifications: N-terminus assumed
SMILES: CCCCCCCCCCCCCCCC(=O)N[C@@H](CCC(=O)NCCCC[C@H](NC(=O)[C@H](CC(=O)O)NC(=O)[C@H](CO)NC(=O)[C@@H](NC(=O)[C@H](Cc1ccccc1)NC(=O)[C@@H](NC(=O)CNC(=O)[C@H](CCC(N)=O)NC(=O)C(C)(C)NC(=O)[C@@H](N)Cc1c[nH]cn1)[C@@H](C)O)[C@@H](C)CC)C(=O)N[C@@H](CO)C(=O)N[C@@H](CCCCN)C(=O)N[C@@H](Cc1ccc(O)cc1)C(=O)N[C@@H](CC(C)C)C(=O)N[C@@H](CC(=O)O)C(=O)N[C@@H](CCC(=O)O)C(=O)N[C@@H](CCC(N)=O)C(=O)N[C@@H](C)C(=O)N[C@@H](C)C(=O)N[C@@H](CCCCN)C(=O)N[C@@H](CCC(=O)O)C(=O)N[C@@H](Cc1ccccc1)C(=O)N[C@H](C(=O)N[C@@H](C)C(=O)N[C@@H](Cc1c[nH]c2ccccc12)C(=O)N[C@@H](CC(C)C)C(=O)N[C@@H](CCSC)C(=O)N[C@@H](CC(N)=O)C(=O)N[C@H](C(N)=O)[C@@H](C)O)[C@@H](C)CC)C(=O)O
EC50 [4]: 0.024 nM and 0.044 nM

[DMIA]SQGTFTSDK([γGlu-Palmitoyl])SKYLDERRAKDFVQWLMNT (lactam 16-20; reading uncertain) [DMIA1, E16/K20 lactam, Lys10 γE-C16 (SEQ ID NO: 651)]
EC50 [4]: 0.006 nM

[DMIA]SQGTFTSDK([γGlu-γGlu-Palmitoyl])SKYLDERRAKDFVQWLMNT (lactam 16-20; reading uncertain) [DMIA1, E16/K20 lactam, Lys10 γE-γE-C16 (SEQ ID NO: 652)]
EC50 [4]: 0.004 nM

XSQGTFTSDYSKYLDERRAKDFVQWLMNK (DMIA at 1; E16/K20 lactam; Lys 29 with C16 acyl via γ-Glu-γ-Glu) [DMIA1, E16/K20 lactam, Lys29 γE-γE-C16 (SEQ ID NO: 654)]
EC50 [5]: 0.025 nM

H[Aib]QGTFTSDYSKYLDEQAAKEFIC(PEG 40 kDa)WLMNGGPSSGAPPPSK-NH2 [mt-350]
% Relative activity [6]: 58.9% | EC50 [6]: 0.0107 nM | % Relative activity [7]: 0% | EC50 [7]: 77.7 nM

H[Aib]QGTFTSDYSKYLD[Aib]QAAKEFIC(PEG 40 kDa)WLMNGGPSSGAPPPSK(Myristoyl)-NH2 [mt-351]
% Relative activity [8]: 10.7% | EC50 [8]: 0.196 nM
